This note sets out measurements from PMC10939776.

A word on the stoichiometry N: it is a count of units in the complex or per binding partner.

Assay [1] has as its target Copalyl diphosphate synthase from Penicillium fellutanum (PfCPS), full-length wild type (Penicillium fellutanum). The assay can be described thus: cryo-EM structure.
For assay [2] the target is unchanged. The assay can be described thus: SEC. In general terms: Size exclusion chromatography separates by hydrodynamic size, large species first.

Consider “Copalyl diphosphate synthase from Penicillium fellutanum (PfCPS), full-length wild type (enzyme)”, for which the stoichiometry N in assay [1] and in assay [2] was 6 in each case.
